The term IC50 denotes the concentration needed to halve the response being measured.

The record followed here is US11813311B2, “Treatment and prevention of metabolic diseases” (Singapore Health Services PTE LTD., priority 2019, dated 2023).

One test deals with TGFβ1-stimulated HSCs. Kind of test: Inhibition of MMP2 secretion by TGFβ1-stimulated HSCs (IC50). The test is classed as cell-based, human. The protocol:
HSCs (5300, ScienCell) were cultured in stellate cells complete media (5301, ScienCell) on poly-L-lysine-coated plates (2 μg/cm2, 0403, ScienCell).
HSCs were stimulated with TGFβ1(5 ng m1^−1, 24 h) in the presence of IgG (4 μg ml^−1) and varying concentrations of X209 (4 μg ml^−1 to 61 pg ml^−1; 4-fold dilutions). Supernatants were collected and assayed for the amount of secreted MMP2. Dose-response curves were generated by plotting the logarithm of X209 tested concentration (pM) versus corresponding percent inhibition values using least squares (ordinary) fit. The IC50 value was calculated using log(inhibitor) versus normalized response-variable slope equation.
The levels of IL-11 and MMP-2 in equal volumes of cell culture media were quantified using Human IL-11 Quantikine ELISA kit (D1100, R&D Systems) and Total MMP-2 Quantikine ELISA kit (MMP200, R&D Systems), respectively. Total secreted collagen in the cell culture supernatant was quantified using Sirius red collagen detection kit (9062, Chondrex). Total hydroxyproline content in the livers was measured using Quickzyme Total Collagen assay kit (Quickzyme Biosciences). Mouse serum levels of alanine aminotransferease (ALT), cholesterol, and triglycerides were measured using Alanine Transaminase Activity Assay Kit (ab105134, abcam), Cholesterol Assay Kit (ab65390, abcam), and Triglyceride Assay Kit (ab65336, abcam), respectively. […]

For test [1], the system named is HFMCD-fed mice. Kind of test: HFMCD NASH model, antibody from week 6 to 10. The format is in vivo, mouse. As to conditions: 10 mg/kg biweekly, four weeks of therapy from week 6. The procedure:
FIGS. 20A to 20N. Therapeutic targeting of Il-11 inhibits and reverses NASH pathologies in preclinical models. (A) Schematic showing therapeutic use of X203 and X209 (10 mg/kg, biweekly) in HFMCD-fed mice for experiments shown in (B-E). X203, X209 or IgG isotype control were administered from week 6 to 10 of HFMCD diet. (B) Representative liver histological images (Masson's Trichrome staining; scale bars, 100 μm), (C) relative liver hydroxyproline content, (D) relative liver pro-inflammatory mRNA expression levels (n≥6/group) and (E) serum ALT levels. (F) Western blots of hepatic Erk activation status. (G) Schematic of X203 or IgG administration to MCD-fed db/db mice for experiments shown in H-N. Western blots of hepatic (H) Il-11 and Gapdh, (I) p-Erk and Erk. (J) Representative Masson's Trichrome images of liver from X203 or IgG-treated MCD-fed db/db mice (scale bars, 100 μm). The levels of (K) hepatic triglyceride, (L) relative liver hydroxyproline, (M) serum ALT, and (N) mRNA expression of liver pro-inflammatory markers (n≥5/group). (C-E,K-N) Data are shown as box-and-whisker with median (middle line), 25th-75th percentiles (box) and min-max percentiles (whiskers); two-tailed, Tukey-corrected Student's t-test. FC: fold change; NC: normal chow; HFMCD: high fat methionine- and choline-deficient; MCD: methionine- and choline-deficient.
High fat methionine and choline-deficient (HFMCD) diet fed wild-type mice Five week old male C57BL/6N mice were fed with Methionine and Choline deficient diet supplemented with 60 kcal % fat (A060713011316, Research Diets); control mice were fed with normal chow (NC, Specialty Feeds). Durations of diet and antibody therapies are described.
Mice were injected intraperitoneally with either antagonist anti-IL-11 antibody, antagonist anti-IL11RA antibody or an identical amount of IgG isotype control for the treatment durations outlined in the figures.

Test [2] concerns HFMCD-fed mice. Kind of test: HFMCD diet model of cachexia-related weight loss. The test is classed as in vivo, mouse. An excerpt:
High fat methionine choline deficient diet (HFMCD) was used to establish cachexia-like metabolic disorder. In order to establish cachexia weight loss and lean mass loss, C57BL/6N mice were fed with methionine and choline deficient (HFMCD) diet supplemented with 60 kcal % fat (A06071301B, Research Diets).
Five-week old male mice were fed a methionine- and choline-deficient (MCD) diet with 60 kcal % fat (A06071301B, Research Diets), designated a high fat MCD (HFMCD) diet, which causes more severe NASH than an MCD diet alone. Control mice were fed with normal chow (NC; Specialty Feeds). Mice were intraperitoneally injected twice per week with 10 mg/kg of anti-IL-11 antibody or anti-IL-11 RA antibody, or identical concentration of IgG isotype control one week after they had received HFMCD for the same treatment duration. Body weight was measured weekly.
To investigate further the effect of inhibition of IL-11-mediated signalling with respect to cachexia, a range of doses of anti-IL-11 therapy were studied in the MCD model. Five-week old male mice were fed on the HFMCD or NC diet as before for one week to induce cachexia, resulting in a ˜15% loss in body weight in MCD mice. After the initial week, mice were intraperitoneally injected twice per week with 0.5, 1, 5 or 10 mg/kg of anti-IL-11 or anti-IL-11 RA antibody. Three antibodies were studied: two anti-IL-11 ((1) and (2)), and one anti-IL-11 RA. 10 mg/kg of IgG isotype antibody was used as a control.
Body weight and food consumption were measured weekly. For food consumption, average food intake was measured (g/mouse/week) in food hoppers from cages (n=3 mice per cage).

The mark [3] stands for this setting: 0.5, 1, 5 or 10 mg/kg twice per week.

Like-named read-outs stand apart in the source and are kept apart here.

B1: X203: mouse anti-mouse IL-11 IgG (IgG1κ), neutralising; VH SEQ ID NO:22, VL SEQ ID NO:23 (antibody, V domains shown)
VH: EVQLQQSGPELVKPGASVKIPCKASGYTFTDYNMDWVKQSHGKSLEWIGDINPHNGGPIYNQKFTGKATLTVDKSSSTAYMELRSLTSEDTAVYYCARGELGHWYFDVWGTGTTVTVSS
VL: DIVLTQSPASLAVSLGQRATISCRASKSVSTSGYSYIHWYQQKPGQPPKLLIYLASNLDSGVPARFSGSGSGTDFTLNIHPVEEEDAATYYCQHSRDLPPTFGGGTKLEIK
modifications: Enx203 VH; Enx203 VL
In the case of B1, the half-maximal inhibitory concentration (IC50) with TGFβ1-stimulated HSCs (read-out: IC50 for HSC activation) came to 0.0401 nM. Further, in the test with HFMCD-fed mice [1], the “Erk activation (liver)” value was “abolished”, the liver damage entry is “inhibited or reversed”, the liver fibrosis entry is listed as “inhibited or reversed” and the liver inflammation result is “inhibited or reversed”. In the test with HFMCD-fed mice [1], the steatosis result was “unchanged”. For the same molecule, the body weight entry in the test on HFMCD-fed mice [2] (10 mg/kg twice per week from week 1, listed as anti-IL-11, 10 mg/kg) is “quickly regained weight and returned to normal, or near-normal, weight by 5 weeks later”.

B2: X209: mouse anti-mouse IL-11Rα IgG (IgG1κ), neutralising; VH SEQ ID NO:24, VL SEQ ID NO:25 (antibody, V domains shown)
VH: QVQLQQPGAELVRPGSSVKLSCKASGYTFTNYWMHWLKQRPVQGLEWIGNIGPSDSKTHYNQKFKDKATLTVDKSSSTAYMQLNSLTSEDSAVYYCARGDYVLFTYWGQGTLVTVSA
VL: DIVLTQSPATLSLSPGERATLSCRASQSISNNLHWYQQKSHEAPRLLIKYASQSISGIPARFSGSGSGTDFTLSFSSLETEDFAVYFCQQSYSWPLTFGQGTKLEIK
modifications: Enx209 VH; Enx209 VL
With B2, the IC50 in the test on TGFβ1-stimulated HSCs (TGFβ1 5 ng/ml, 24 h, 4 μg/ml to 61 pg/ml, 4-fold dilutions, read-out: IC50, blocking MMP2 secretion from HSCs) stood at 0.0058 nM. In the test with HFMCD-fed mice [1], the “Erk activation (liver)” value was “abolished”, the liver damage entry was “inhibited or reversed”, the liver fibrosis entry is listed as “inhibited or reversed” and the liver inflammation entry is on record as “inhibited or reversed”. For the same molecule, in the test on HFMCD-fed mice [1], the steatosis entry is “unchanged”. In addition, the body weight result with HFMCD-fed mice [2] (10 mg/kg twice per week from week 1, listed as anti-IL-11 RA, 10 mg/kg) was “quickly regained weight and returned to normal, or near-normal, weight by 5 weeks later”. In addition, the body weight entry with HFMCD-fed mice [2] (10 mg/kg twice per week from week 1, listed as anti-IL-11Rα, 10 mg/kg) is listed as “returned to normal or near-normal weight”. Also, in the test with HFMCD-fed mice [2] (setting [3]), the body weight entry is “most effective in reversing weight loss” and the food consumption result is on record as “greatest increase in food intake”.
